Results reported in IntAct's records for PubMed 22660413.

B1: Syntenin-1 (Mus musculus), O08992 (parent)
chain: MSLYPSLEDLKVDKVIQAQTAYSANPASQAFVLVDASAALPPDGNLYPKLYPELSQYMGLSLNEAEICESMPMVSGAPAQGQLVARPSSVNYMVAPVTGNDAGIRRAEIKQGIREVILCKDQDGKIGLRLKSIDNGIFVQLVQANSPASLVGLRFGDQVLQINGENCAGWSSDKAHKVLKQAFGEKITMTIRDRPFERTVTMHKDSSGHVGFIFKSGKITSIVKDSSAARNGLLTDHHICEINGQNVIGLKDAQIADILSTAGTVVTITIMPTFIFEHIIKRMAPSIMKSLMDHTIPEV
partner: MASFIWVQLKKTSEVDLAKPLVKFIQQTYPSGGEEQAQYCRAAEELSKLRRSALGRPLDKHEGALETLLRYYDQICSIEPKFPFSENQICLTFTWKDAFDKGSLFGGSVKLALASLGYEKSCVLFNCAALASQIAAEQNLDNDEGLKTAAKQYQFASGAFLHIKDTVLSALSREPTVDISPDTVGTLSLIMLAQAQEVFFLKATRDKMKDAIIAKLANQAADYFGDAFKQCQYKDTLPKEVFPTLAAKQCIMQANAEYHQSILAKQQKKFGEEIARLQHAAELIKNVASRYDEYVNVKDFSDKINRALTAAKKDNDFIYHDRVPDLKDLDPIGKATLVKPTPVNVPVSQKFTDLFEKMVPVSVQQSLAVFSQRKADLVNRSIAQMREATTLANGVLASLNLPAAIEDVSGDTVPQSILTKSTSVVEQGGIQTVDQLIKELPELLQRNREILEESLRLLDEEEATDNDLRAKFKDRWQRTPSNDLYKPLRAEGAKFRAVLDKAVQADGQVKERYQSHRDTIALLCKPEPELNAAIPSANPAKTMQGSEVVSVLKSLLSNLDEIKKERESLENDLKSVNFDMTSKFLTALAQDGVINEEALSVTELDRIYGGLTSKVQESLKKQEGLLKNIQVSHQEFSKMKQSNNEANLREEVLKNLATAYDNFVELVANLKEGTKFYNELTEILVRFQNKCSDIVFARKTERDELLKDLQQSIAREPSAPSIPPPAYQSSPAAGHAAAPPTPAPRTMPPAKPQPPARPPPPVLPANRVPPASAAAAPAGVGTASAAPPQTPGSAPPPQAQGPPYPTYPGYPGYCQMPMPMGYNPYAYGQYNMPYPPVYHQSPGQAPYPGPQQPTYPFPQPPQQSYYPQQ

Variants of: B1
Conditions: with pdc6i_mouse Pdcd6ip

| effect of a mutation on the interaction | Variant |
| --- | --- |
| disrupting interaction | MSLAASLEDLKVDKVIQAQTAYSANPASQAFVLVDASAALPPDGNLAAKLAAELSQYMGLSLNEAEICESMPMVSGAPAQGQLVARPSSVNYMVAPVTGNDAGIRRAEIKQGIREVILCKDQDGKIGLRLKSIDNGIFVQLVQANSPASLVGLRFGDQVLQINGENCAGWSSDKAHKVLKQAFGEKITMTIRDRPFERTVTMHKDSSGHVGFIFKSGKITSIVKDSSAARNGLLTDHHICEINGQNVIGLKDAQIADILSTAGTVVTITIMPTFIFEHIIKRMAPSIMKSLMDHTIPEV [Y4A;P5A;Y47A;P48A;Y51A;P52A] |

Variants of: B1
Conditions: with pdc6i_mouse Pdcd6ip
Remark: another data set of the same source

| effect of a mutation on the interaction | Variant |
| --- | --- |
| disrupting interaction | MSLAASLEDLKVDKVIQAQTAYSANPASQAFVLVDASAALPPDGNLAAKLAAELSQYMGLSLNEAEICESMPMVSGAPAQGQLVARPSSVNYMVAPVTGNDAGIRRAEIKQGIREVILCKDQDGKIGLRLKSIDNGIFVQLVQANSPASLVGLRFGDQVLQINGENCAGWSSDKAHKVLKQAFGEKITMTIRDRPFERTVTMHKDSSGHVGFIFKSGKITSIVKDSSAARNGLLTDHHICEINGQNVIGLKDAQIADILSTAGTVVTITIMPTFIFEHIIKRMAPSIMKSLMDHTIPEV [Y4A;P5A;Y47A;P48A;Y51A;P52A] |
| disrupting interaction | MSLYPSLEDLKVDKVIQAQTAYSANPASQAFVLVDASAALPPDGNLYPKLAAELSQYMGLSLNEAEICESMPMVSGAPAQGQLVARPSSVNYMVAPVTGNDAGIRRAEIKQGIREVILCKDQDGKIGLRLKSIDNGIFVQLVQANSPASLVGLRFGDQVLQINGENCAGWSSDKAHKVLKQAFGEKITMTIRDRPFERTVTMHKDSSGHVGFIFKSGKITSIVKDSSAARNGLLTDHHICEINGQNVIGLKDAQIADILSTAGTVVTITIMPTFIFEHIIKRMAPSIMKSLMDHTIPEV [Y51A;P52A] |
